Target: T1, SynRuvC E75A (Synechocystis sp. PCC6803, UniProt Q55506 1-167, E75A)
T1 sequence: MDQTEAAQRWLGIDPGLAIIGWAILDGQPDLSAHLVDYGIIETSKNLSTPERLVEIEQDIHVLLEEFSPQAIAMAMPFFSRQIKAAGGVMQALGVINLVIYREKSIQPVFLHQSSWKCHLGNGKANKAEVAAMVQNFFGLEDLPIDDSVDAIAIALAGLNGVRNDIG
Assay: EMSA; EMSA: 50 nM 5'-FAM DNA, 0-2000 nM protein, 20 mM HEPES pH 7.5, 50 mM NaCl, 1 mM DTT, 10% DMSO, 1% glycerol, no metal listed, 37 C 60 min; 5% native PAGE in 1x TAE
Details: protein: recombinant; tags: His-SUMO N-terminal, removed (purified as WT); chain copies: 2; label: 5'-FAM on one strand; four-way junction, 13 bp homologous core

B1: 4Jh (structured_DNA)
DNA 1: GCAATTCGATCGTTGACATCTCGCGTGCTCGGTCAATCGGCAGATGCGGAGTGAAGTTCCAACGTTCGGC
DNA 2: CCTGCAGGATGGTAGGACGGCCTCGCAATCCCGATTGACCGAGCACGCGAGATGTCAACGATCGAATTGC
DNA 3: GCCGAACGTTGGAACTTCACTCCGCATCTGCCGATTGACCGAGTGGCGTGTTTCTGGTGGTTCCTAGGTC
DNA 4: GACCTAGGAACCACCAGAAACACGCCACTCGGTCAATCGGGATTGCGAGGCCGTCCTACCATCCTGCAGG
binding result: no binding

Source: article PMC11063404, “Classical and novel properties of Holliday junction resolvase SynRuvC from Synechocystis sp. PCC6803”
